Measured values taken from paper PMC12729873, “Linoleic Hydroperoxides Are Potent Hyperoxidative Agents of Sensitive and Robust Typical 2-Cys Peroxiredoxins” (Antioxidants, 2025).

What was measured:
Experiment in all cases: purified protein
CC(C)(OO)c1ccccc1 [1] = settings: S. cerevisiae Trx1/TrxR1, NADPH 150 µM, HEPES pH 7.4, 37 °C, DTPA 100 µM, azide 1 mM, fit to low-substrate phase only
CC(C)(OO)c1ccccc1 [2] = assay type: biochemical, Pseudomonas aeruginosa; settings: E. coli Trx/TrxR, NADPH 150 µM, HEPES pH 7.4, 37 °C, DTPA 100 µM, azide 1 mM, fit to low-substrate phase only
purified protein = substrate: CC(C)(OO)c1ccccc1; settings: E. coli Trx/TrxR, NADPH 150 µM, HEPES pH 7.4, 37 °C, DTPA 100 µM, azide 1 mM, fit to low-substrate phase only

HsPrx2 (Homo sapiens)
Km (CC(C)(OO)c1ccccc1 [1]): 57 (±17) µM
Vmax (CC(C)(OO)c1ccccc1 [1]): 101 µM/min
kcat (CC(C)(OO)c1ccccc1 [1]): 0.56 ± 0.09 s⁻¹
kcat/Km (CC(C)(OO)c1ccccc1 [1]): 9800 ± 1300 M⁻¹ s⁻¹

PaAhpC (Pseudomonas aeruginosa UCBPP-PA14)
Km (CC(C)(OO)c1ccccc1 [2]): 82 (±14) µM
Vmax (CC(C)(OO)c1ccccc1 [2]): 34.2 µM/min
kcat (CC(C)(OO)c1ccccc1 [2]): 0.18 ± 0.01 s⁻¹
kcat/Km (CC(C)(OO)c1ccccc1 [2]): 2000 ± 200 M⁻¹ s⁻¹

B1: SeAhpC (Staphylococcus epidermidis RP62A) (protein)
chain: MSLINKEILPFTAQAYDPKKDEFKEVTQEDFKGSWNVVCFYPADFSFVCPTELEDLQNQYAKLQELGVNVYSVSTDTHFVHKAWHDHSDAISKLEYSMIGDPSQTITRNFDVLDEETGLAQRGTFIIDPDGVVQAAEINADGIGRDASTLVNKIKAAQYVRQHPGEVCPAKWEEGSESLQPGLDLVGKI
Km (purified protein): 76 (±10) µM
Vmax (purified protein): 35.4 µM/min
kcat (purified protein): 0.19 ± 0.01 s⁻¹
kcat/Km (purified protein): 2500 ± 100 M⁻¹ s⁻¹
